The chains are these.
T1: mouse IL-2Rβ (mouse) (UniProt P16297)
T1 sequence (looked up): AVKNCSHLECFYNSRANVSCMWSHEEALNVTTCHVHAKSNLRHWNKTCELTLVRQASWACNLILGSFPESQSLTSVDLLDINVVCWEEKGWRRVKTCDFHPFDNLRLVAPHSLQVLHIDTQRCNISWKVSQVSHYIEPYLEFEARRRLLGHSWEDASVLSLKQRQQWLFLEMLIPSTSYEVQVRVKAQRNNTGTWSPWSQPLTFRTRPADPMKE

B1: FJ1427 P035MP02D09 (VHH)
VHH: QVQLVESGGGLVQAGGSLRLACALSGDVFVRYTMAWFRQAPGKEREFVASVTDSGRTTDYVASVQGRFTVSRDNNKNTVYLQMNSLKPEDTAVYYCAANTDYFQIRSLDRNTWGQGTQVTVSS
B2: FJ1427 P035MP02H10 (VHH)
VHH: B1 VHH with Q1E, A21S, L24A, A62D, Q65K, N75A, S85N, R106K
B3: FJ1427_P035MP02F09 (VHH)
VHH: B1 VHH with Q1E, A21S, L24A, A62D, Q65K, N75A, S85N, D109E, R110F
B4: FJ1427_P035MP02C10 (VHH)
VHH: B1 VHH
B5: FJ1427 P035MP02A10 (VHH)
VHH: QLQLVESGGGLVQTGTSLRLSCAASGHTSRINAMGWFRQFPGKEREFVAAISRNGGSTVYVDSVKGRFTISRDNAKSTVYLQMNSLKPEDTAVYYCTATDAVGWTTRWMTADFGFWGQGTQVTVSS
B6: FJ1427_P035MP02B10 (VHH)
VHH: QVQLVESGGGLVEAGGSLRLSCAASGRAFNNFPMGWFRQAPGKEREFVAAITWISGSTLYADSVKGRFTISRDKSKNTVYLQMSGLKPEDTALYYCAAALKTITRGQHDYTYWGQGTQVTVSS
B7: FJ1427_P035MP02G09 (VHH)
VHH: QVQLVESGGGLVQAGGSLRLSCTVSGDVFVRYTMAWFRQAPGKEREFVALVTDSGRTTEYVDSVKGRFTVSRDNAKNTVYLQMNNLKPEDTAVYYCAANTDYFRIRSLDANTWGQGTQVTVSS
B8: FJ1427_P035MP02F10 (VHH)
VHH: B7 VHH with Q1E, T23V, L50V, R104Q, L108V, A110N, T112A
B9: FJ1427_P035MP02B09 (VHH)
VHH: EVQLVESGGGLVQAGGSLRLSCAASGRTFSTTEMGWFRQAPGKEREFVAAITWTGRGTMYAESVEGRFTISRENAKNMVYLQMNSLKPEDTAIYYCAAARRGRAAVRSEGGYDFWGQGTQVTVSS
B10: FJ1427_P035MP02G10 (VHH)
VHH: B9 VHH with E1Q
B11: FJ1427_P035MP02A11 (VHH)
VHH: B9 VHH with V121A
B12: FJ1427 P035MP02E06 (VHH)
VHH: QVQLVESGGGSVQPGGSLRLSCAASGFTFSNYAMSWVRQAPGKGLEWVASITGFGRGTDYADSVKGRFTISRDNAEDTLYLQMNSLKPEDTAVYYCAKYSSSTYYPPTPARGRDYRGQGTQVTVSS
B13: FJ1427 P035MP02C01 (VHH)
VHH: B12 VHH with S11L, R19G, S30D, A49S, F54A, D59H, E76K, D77N, R113T, Q118P
B14: FJ1427 P035MP06E05 (VHH)
VHH: QVQLVESGGELVQGGASLRLSCAASGRTFSNANMAWFRQAPEKEREFVALITWSSGSTLYADSVKGRFTISRDNARKMVYLQMNSLKPEDTAVYYCAADGPPYSGTYYRYDTYDYWGQGTQVTVSS
B15: FJ1427 P035MP03A12 (VHH)
VHH: EVQLVESGGGLVQAGGSLRLSCAASGRTFSINAMGWFRQAPGKEREFVAAISRSGGSTVYVDGVKGRFTISRDNAKNTVYLQMNSLEPEDTAVYYCAATMAVGWTTRWRTADFDSWGQGTQVTVSS
B16: FJ1427 P035MP02E11 (VHH)
VHH: QVQLQESGGGLVQAGGSLRLSCAASGRTFSNYVMAWFRQAPGKEREFVGAITQTGRGTFYADSVEGRFTISRINDKNTVYLQMNSLKPEDTAVYYCSAPRSGRAGTRNQMDYEYWGQGTQVTVSS
B17: FJ1427_P035MP06F05 (VHH)
VHH: QVQLVESGGGLVQTGDSLRLSCAASGRSLDTTYIAWFRQAPGKERDFLAYISPRFSHTWYADSVKGRFTISRNIAKRTVDLEMNSLEPEDTAVYYCAAREHSGSTAWEHYDHWGQGTQVTVSS
B18: FJ1427_P035MP03F12 (VHH)
VHH: EVQLVESGGGLVQAGGSLRLSCAASGSIFSINAMAWFRQVPGMERELVAAISRDGGASVYRDSVKGRFTISRDNSKNTVYLQMNTLKPEDTAIYVCAATRAIGWTARWITTDFDFWGQGTQVTVSS
B19: FJ1427_P035MP03C03 (VHH)
VHH: QVQLVESGGGLVQPGGSLRLSCAISGGTLDSYGIGWVRQAPGKQREGVSCMSRSDDRTYYADSVKGRFTISKDSAKNTVYLQMTSLKPEDTAVYYCAAVDAYGCSLVQPTTYDFWGLGTQVTVSS
B20: FJ1427_P035MP03F08 (VHH)
VHH: EVQLVESGGGLVQTGGSLRLSCAASGGTFSRDAMAWFRQVPGKEREFVALISWSGATTNYADSVKGRFAISRDNGKNTVYLQMNRLKPADTAIYYCAADRRPMGSRSYFEPTEYDDWGQGTQVTVSS
B21: FJ1427 P035MP02C03 (VHH)
VHH: EVQLVESGGGLVQTGGSLRLSCAASGSQFINDVMGWYRQVPGKQRELVADMDDTGSTEYADSVKGRFTILRDSVKNTAYLQMSNLKPEDTGVYYCKAGLWIKGRHFDYWGQGTQVTVSS
B22: FJ1427_P035MP02B01 (VHH)
VHH: B21 VHH with E1Q, E58K
B23: FJ1427 P035MP02D01 (VHH)
VHH: B21 VHH with E1Q, V5Q, E58K, F106S
B24: FJ1427_P035MP03F10 (VHH)
VHH: EVQLVESGGGLVQAGGSLRLSCAASGRDFSSYAMGWFRQAPGKEREFVVAITWTKRSTDFPDSVKGRFTISRDNAKNTVYLDMNSLKPEDTAVYYCASARGLPVTPLGDIIYWGEGTLVTVSS
B25: FJ1427_P035MP02C09 (VHH)
VHH: QVQLQESGGGLVQAGGSLRLSCVASGSVSSINGMAWYRQGADNQRVLVAAISRVGNTAYGDSVKGRFTISRQNARNTVYLQMNSLKPEDTAVYYCNADSWGGDDYWGQGTQVTVSS
B26: FJ1427_P035MP02A01 (VHH)
VHH: QVQLVESGGGLVQTGGSLRLSCVVSGSHFISDVMGWYRQVPGKQRELVADMADGGSAKYGDSVKGRFTILRDSVKNTVYLQMSSLNPEDTGVYYCKAGLWITGRHSDYWGQGTQVTVSS
B27: FJ1427 P035MP02D10 (VHH)
VHH: EVQLVESGGGLVQAGGSLRLSCAASGRTFSSDAKAWFRQAPGKEREFVAAITWAGRGTDYADSVKDRFTITRDNAKNMVYLQMSSLKPEDTAVYYCALNPTGVIGPGFRNSNRYDYWGQGTQVTVAS
B28: FJ1427_P035MP02H08 (VHH)
VHH: EVQLVESGGGLVQAGDSLRISCAASGRIFSNYAMGWFRQAPGKETEFVAGITHLTSTTHYADSVKGRFTISRDNAKNTMHLQMNNLKPEDTALYYCAADRNIKITADWSYWGQGTQVTVAS
B29: FJ1427 P035MP02D11 (VHH)
VHH: B28 VHH with E1Q, V5Q
B30: FJ1427 P035MP02H09 (VHH)
VHH: QLQLVESGGGLVQPGGSLRLSCAAAGRAIENYPVGWFRRAPGKEREFVAAITWISGSTLYADSVKGRFTISRDNAKNTVYLQMSSLKPEDTALYYCAAALKTITRGQNDYSYWGQGTQVTVSS
B31: FJ1427_P035MP02E10 (VHH)
VHH: B30 VHH with L2V, P14A
B32: FJ1427_P035MP02B08 (VHH)
VHH: B30 VHH with Q1E, L2V, P14A, A25S, R39Q

Numbering of substitutions follows the chain as printed.

This test addresses T1, mouse IL-2Rβ (mouse). Nature of the test: P.E. ELISA, coated protein.
B1: the P.E. binding ELISA OD is 0.056 OD450 nm.
B2: the P.E. binding ELISA OD came to 0.051 OD450 nm.
Under B3 stands 0.051 OD450 nm; under B4, 0.05 OD450 nm; under B5, 0.047 OD450 nm.
As for B6, the figure is 0.047 OD450 nm.
The molecule B7 had a P.E. binding ELISA OD of 0.066 OD450 nm.
As for B8, the figure is 0.051 OD450 nm.
Under B9 stands 0.047 OD450 nm.
Molecule B10 returned a P.E. binding ELISA OD of 0.048 OD450 nm.
Turning to B11, the P.E. binding ELISA OD is 0.047 OD450 nm.
As for B12, the figure is 0.048 OD450 nm.
As for B13, the figure is 0.047 OD450 nm; as for B14, 0.046 OD450 nm; as for B15, 0.05 OD450 nm.
As for B16, the figure is 0.048 OD450 nm; as for B17, 0.047 OD450 nm; as for B18, 0.048 OD450 nm.
Consider B19, for which the P.E. binding ELISA OD amounted to 0.048 OD450 nm.
Under B20 stands 0.049 OD450 nm.
As for B21, the figure is 0.047 OD450 nm; as for B22, 0.048 OD450 nm.
Under B23 stands 0.048 OD450 nm; under B24, 0.048 OD450 nm.
As to B25, the P.E. binding ELISA OD worked out at 0.047 OD450 nm.
Under B26 stands 0.048 OD450 nm; under B27, 0.047 OD450 nm.
B28 returned a P.E. binding ELISA OD of 0.049 OD450 nm.
B29 gave a P.E. binding ELISA OD of 0.047 OD450 nm.
For B30, the P.E. binding ELISA OD was 0.049 OD450 nm.
Molecule B31 returned a P.E. binding ELISA OD of 0.047 OD450 nm.
Under B32 stands 0.048 OD450 nm.
